# Results: the RNAGym collection of RNA variant scans (doi:10.7554/elife.80360)
# B1: CPEB3 Ribozyme (parent)
# chain: GGGGGCCACAGCAGAAGCGUUCACGUCGCGGCCCCUGUCAGAUUCUGGUGAAUCUGCGAAUUCUGCUGU
# Variants of: B1
# Assay: self-cleavage, relative activity (ratio to wild type); higher = more cleavage; co-transcriptional
row,Variant,self-cleavage
1,U36C U55C,0.74
2,U36C U55G,0.454
3,U36C U61G,0.601
4,U36C U62C,0.528
5,U36C U64A,0.713
6,U36C U67A,0.926
7,U36C U67C,0.981
8,U36C U69A,0.996
9,U36G,0.239
10,U36G A40U,0.259
11,U36G A42C,0.221
12,U36G A42U,0.256
13,U36G A51C,0.25
14,U36G A51G,0.179
15,U36G A51U,0.117
16,U36G A60C,0.206
17,U36G A60G,0.209
18,U36G C45U,0.232
19,U36G C54A,0.186
20,U36G C54G,0.137
21,U36G C57A,0.236
22,U36G C57U,0.184
23,U36G C63A,0.147
24,U36G G47U,0.148

row,Variant,self-cleavage
1,U36G G48U,0.196
2,U36G G50A,0.214
3,U36G G50C,0.231
4,U36G G56C,0.284
5,U36G G58U,0.193
6,U36G G65U,0.0921
7,U36G G68A,0.214
8,U36G G68C,0.436
9,U36G G68U,0.338
10,U36G U38A,0.214
11,U36G U44C,0.118
12,U36G U46A,0.349
13,U36G U46G,0.181
14,U36G U49A,0.237
15,U36G U49G,0.197
16,U36G U53A,0.273
17,U36G U53G,0.214
18,U36G U55C,0.177
19,U36G U55G,0.245
20,U36G U61C,0.139
21,U36G U61G,0.179
22,U36G U62A,0.131
23,U36G U62G,0.238
24,U36G U64A,0.254

row,Variant,self-cleavage
1,U36G U67G,0.252
2,U36G U69C,0.493
3,U36G U69G,0.45
4,G37A A42G,0.189
5,G37A A51C,0.334
6,G37A A51G,0.332
7,G37A A52C,0.282
8,G37A A59U,0.215
9,G37A A60C,0.274
10,G37A A60U,0.193
11,G37A C39G,0.277
12,G37A C45A,0.23
13,G37A C54G,0.221
14,G37A C63G,0.258
15,G37A C66A,0.227
16,G37A C66G,0.265
17,G37A G41U,0.219
18,G37A G48A,0.357
19,G37A G48C,0.265
20,G37A G50A,0.304
21,G37A G56A,0.249
22,G37A G56U,0.257
23,G37A G58A,0.289
24,G37A G58U,0.247

row,Variant,self-cleavage
1,G37A G68C,0.371
2,G37A U44A,0.277
3,G37A U49A,0.285
4,G37A U49C,0.303
5,G37A U53A,0.303
6,G37A U53G,0.222
7,G37A U55G,0.234
8,G37A U61C,0.149
9,G37A U61G,0.221
10,G37A U62G,0.318
11,G37A U64C,0.312
12,G37A U67C,0.321
13,G37A U67G,0.334
14,G37A U69A,0.422
15,G37A U69G,0.538
16,G37C A42C,0.237
17,G37C A42G,0.213
18,G37C A51G,0.205
19,G37C A52U,0.254
20,G37C A59U,0.242
21,G37C A60G,0.237
22,G37C C45G,0.346
23,G37C C54G,0.164
24,G37C G41A,0.245

row,Variant,self-cleavage
1,G37C G41C,0.126
2,G37C G47C,0.18
3,G37C G48C,0.226
4,G37C G56C,0.223
5,G37C G65C,0.255
6,G37C U38G,0.25
7,G37C U43G,0.202
8,G37C U44A,0.27
9,G37C U44G,0.211
10,G37C U46A,0.236
11,G37C U46G,0.25
12,G37C U49A,0.307
13,G37C U53C,0.284
14,G37C U53G,0.129
15,G37C U62C,0.276
16,G37C U64A,0.267
17,G37C U64C,0.162
18,G37C U67A,0.274
19,G37C U67G,0.188
20,G37C U69A,0.336
21,G37C U69C,0.428
22,G37U A40U,0.257
23,G37U A51C,0.234
24,G37U A51G,0.266

row,Variant,self-cleavage
1,G37U A51U,0.252
2,G37U A52C,0.281
3,G37U A59C,0.218
4,G37U A59G,0.412
5,G37U A60C,0.224
6,G37U A60G,0.208
7,G37U A60U,0.195
8,G37U C39A,0.273
9,G37U C39G,0.214
10,G37U C45A,0.295
11,G37U C54U,0.332
12,G37U C57G,0.209
13,G37U C66U,0.245
14,G37U G41U,0.201
15,G37U G47A,0.324
16,G37U G48C,0.326
17,G37U G50A,0.284
18,G37U G50C,0.315
19,G37U G58A,0.17
20,G37U G65C,0.228
21,G37U G68U,0.375
22,G37U U43G,0.298
23,G37U U44C,0.188
24,G37U U53A,0.195

row,Variant,self-cleavage
1,G37U U55A,0.187
2,G37U U61A,0.263
3,G37U U62C,0.299
4,G37U U64G,0.227
5,G37U U69A,0.358
6,G37U U69G,0.354
7,U38A,0.929
8,U38A A40C,0.703
9,U38A A40G,0.808
10,U38A A42C,0.892
11,U38A A42G,0.755
12,U38A A51C,0.908
13,U38A A51G,0.89
14,U38A A52C,0.898
15,U38A A60U,0.453
16,U38A C39A,0.748
17,U38A C39G,0.994
18,U38A C45A,0.875
19,U38A C45U,0.918
20,U38A C54A,0.797
21,U38A C54G,0.8
22,U38A C57G,0.297
23,U38A G41A,0.718
